These results are taken from publication PMC10293821.

The target in test [1] is apo recombinant HRPII mutant with a 4 amino acid C terminus truncation (P. falciparum). Briefly: AUC.
The target of test [2] is histidine-rich protein II (HRPII) purified from conditioned media of cultured P. falciparum (P. falciparum strain 3D7). Briefly: AUC.

In general, stoichiometry N refers to the number of molecules, sites or subunits per partner or assembly. Regarding “apo recombinant HRPII mutant with a 4 amino acid C terminus truncation (domain or fragment)”, the stoichiometry N in test [1] worked out at 3.

Substance “histidine-rich protein II (HRPII) purified from conditioned media of cultured P. falciparum (natural protein)” gave a stoichiometry N in test [2] of 14.
